This note sets out measurements from paper PMC5529715.

In the assay the target is MBP-A3H hap II (APOBEC3H haplotype II, splicing variant SV182, MBP fusion) (human). Kind of assay: SEC-MALS.

What is called stoichiometry N is a count of units in the complex or per binding partner. In turn, “MBP-A3H hap II (APOBEC3H haplotype II, splicing variant SV182, MBP fusion) (enzyme)” came in with a stoichiometry N of 14 to 15 monomers.
